According to FireProtDB (doi:10.1021/bi962939w):

Details: Mus musculus, 25 °C, CD, whole UniProt chain shown
[1] = pH 4, Urea, Sodium acetate 10 mM

B1: Interleukin-6 wild type, P08505 (protein)
chain: MKFLSARDFHPVAFLGLMLVTTTAFPTSQVRRGDFTEDTTPNRPVYTTSQVGGLITHVLWEIVEMRKELCNGNSDCMNNDDALAENNLKLPEIQRNDGCYQTGYNQEICLLKISSGLLEYHSYLEYMKNNLKDNKKDKARVLQRDTETLIHIFNQEVKDLHKIVLPTPISNALLTDKLESQKEWLRTKTIQFILKSLEEFLKVTLRSTRQT
- denaturant m value [1]: 3 kcal/mol/M
- denaturant midpoint (higher = more stable) [1]: 3.59 M
- unfolding free energy [1]: 10.8 kcal/mol
- denaturant m value (pH 7.4, GdnHCl, Tris-HCl 10 mM): 1 kcal/mol/M
- denaturant midpoint (higher = more stable) (pH 7.4, GdnHCl, Tris-HCl 10 mM): 1.9 M
- unfolding free energy (pH 7.4, GdnHCl, Tris-HCl 10 mM): 1.9 kcal/mol
- denaturant m value (pH 7.4, Urea, Tris-HCl 10 mM): 1.1 kcal/mol/M
- denaturant midpoint (higher = more stable) (pH 7.4, Urea, Tris-HCl 10 mM): 5.2 M
- unfolding free energy (pH 7.4, Urea, Tris-HCl 10 mM): 5.7 kcal/mol
